Measurements taken from article PMC5349785 (Molecular Biology of the Cell, 2017).

Columns and labels:
[1] = biological target: T1, CSC with GFP-tagged Vps29 (CSC-GFP) (S. cerevisiae, UniProt P34110;P40335;P38759); assay: recruitment to giant unilamellar vesicles
[2] = biological target: T1, CSC with GFP-tagged Vps29 (CSC-GFP); assay: pull-down
[3] = biological target: T2, Vps35 with C-terminal TAP tag (S. cerevisiae, UniProt P34110 1-944); assay: tandem affinity purification
T2 sequence: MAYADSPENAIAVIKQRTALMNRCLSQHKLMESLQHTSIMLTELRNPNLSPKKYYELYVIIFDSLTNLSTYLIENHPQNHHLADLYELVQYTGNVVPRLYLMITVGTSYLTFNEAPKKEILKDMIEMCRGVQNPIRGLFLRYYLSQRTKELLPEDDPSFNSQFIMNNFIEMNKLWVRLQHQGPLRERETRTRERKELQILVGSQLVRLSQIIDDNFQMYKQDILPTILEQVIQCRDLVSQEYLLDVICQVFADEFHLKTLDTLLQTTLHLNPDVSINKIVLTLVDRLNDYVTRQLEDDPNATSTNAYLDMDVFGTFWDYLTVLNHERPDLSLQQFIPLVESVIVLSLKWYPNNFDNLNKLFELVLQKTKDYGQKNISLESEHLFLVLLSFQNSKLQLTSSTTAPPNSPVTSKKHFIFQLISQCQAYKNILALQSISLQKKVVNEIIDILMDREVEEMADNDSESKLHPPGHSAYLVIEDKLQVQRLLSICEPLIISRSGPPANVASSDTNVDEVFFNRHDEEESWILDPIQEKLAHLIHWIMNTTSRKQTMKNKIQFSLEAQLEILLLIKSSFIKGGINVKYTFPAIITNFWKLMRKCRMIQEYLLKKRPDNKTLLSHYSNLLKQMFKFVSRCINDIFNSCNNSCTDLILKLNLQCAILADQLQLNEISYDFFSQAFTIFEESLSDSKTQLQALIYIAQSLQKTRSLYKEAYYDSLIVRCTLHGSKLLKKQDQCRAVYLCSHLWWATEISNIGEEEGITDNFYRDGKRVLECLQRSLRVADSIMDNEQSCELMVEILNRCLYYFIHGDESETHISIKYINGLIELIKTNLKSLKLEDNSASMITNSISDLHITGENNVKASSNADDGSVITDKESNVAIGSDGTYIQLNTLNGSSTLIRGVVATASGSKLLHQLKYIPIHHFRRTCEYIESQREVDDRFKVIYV

B1: fluorescently labeled Ypt7 without His tag (natural protein)
chain: MSSRKKNILKVIILGDSGVGKTSLMHRYVNDKYSQQYKATIGADFLTKEVTVDGDKVATMQVWDTAGQERFQSLGVAFYRGADCCVLVYDVTNASSFENIKSWRDEFLVHANVNSPETFPFVILGNKIDAEESKKIVSEKSAQELAKSLGDIPLFLTSAKNAINVDTAFEEIARSALQQNQADTEAFEDDYNDAINIRLDGENNSCSC
modifications: fluorescent label: ATTO (legend of Figure 5); DY-647 maleimide derivative (methods)
[1]
  binding result: binds

B2: SNX-BAR complex with GFP-tagged Vps17 (SNX-BAR-GFP) (complex)
chain 1: MDYEDNLEAPVWDELNHEGDKTQSLVSNSIESIGQISTNEERKDNELLETTASFADKIDLDSAPEWKDPGLSVAGNPQLEEHDNSKADDLINSLAPEQDPIADLKNSTTQFIATRESGGALFTGNANSPLVFDDTIYDANTSPNTSKSISGRRSGKPRILFDSARAQRNSKRNHSLKAKRTTASDDTIKTPFTDPLKKAEKENEFVEEPLDDRNERRENNEGKFTASVEKNILEQVDRPLYNLPQTGANISSPAEVEENSEKFGKTKIGSKVPPTEKAVAFKVEVKDPVKVGELTSIHVEYTVISESSLLELKYAQVSRRYRDFRWLYRQLQNNHWGKVIPPPPEKQSVGSFKENFIENRRFQMESMLKKICQDPVLQKDKDFLLFLTSDDFSSESKKRAFLTGSGAINDSNDLSEVRISEIQLLGAEDAAEVLKNGGIDAESHKGFMSISFSSLPKYNEADEFFIEKKQKIDELEDNLKKLSKSLEMVDTSRNTLAASTEEFSSMVETLASLNVSEPNSELLNNFADVHKSIKSSLERSSLQETLTMGVMLDDYIRSLASVKAIFNQRSKLGYFLVVIENDMNKKHSQLGKLGQNIHSEKFREMRKEFQTLERRYNLTKKQWQAVGDKIKDEFQGFSTDKIREFRNGMEISLEAAIESQKECIELWETFYQTNL
chain 2: MTSAVPYDPYDDLDNNPFAEPQEEDSEPAATTTDGSSSMSEERVGTEQTAASVQDNGTANNIQNGLGEEGNATRSKTSNEHNENQQPSQPSERVILPERSDEKKKYTLLAKVTGLERFGSATGKKENPTIIFDCSTNLPTFRKQQYKNVKKSYEEFHQLFKYLNVAIQESFVPTLPSAYTTFGINSEEDRMKVTRNFQLWFNRLSQDPLIIRNEEVAFFIESDFNTYTPINKSKSLASGLKRKTLKQLAPPYDEITELAEFRPLVKSIYVVSQSLQEKLLRVSRNRKMMVQEENAFGQDFVNLDEHNKLYRRYGKILTAVGDIDSIIATMDMATLYDGLEWIVRDAYAVKEALTNRHFIMRNLVQAQQNSKAKQEQARRFRSRRDINPMKIDEALRQLKAAAKNEQVLTLKLQRITSNMIIERKQWISWYEEWIRSSIKEFTLRKIEYERKKLTLLERVRSDIRKADENGGLSRLGRHAVSNNNSDTSQTLKGDSWTGESNRKSQIPINKIAHTEFDDELFTEDDGYNSQDSDTTSLNARHAASLLGMSTK
[2]
  binding result: binds

B3: SNX-BAR complex (Vps5-Vps17 heterodimer) (complex)
chain 1: B2 chain 1
chain 2: B2 chain 2
[1]
  binding result: binds

B4: Vps29 (natural protein)
chain: MLLLALSDAHIPDRATDLPVKFKKLLSVPDKISQVALLGNSTKSYDFLKFVNQISNNITIVRGEFDNGHLPSTKKDKASDNSRPMEEIPMNSIIRQGALKIGCCSGYTVVPKNDPLSLLALARQLDVDILLWGGTHNVEAYTLEGKFFVNPGSCTGAFNTDWPIVFDVEDSDEAVTSEVDKPTKENQSEDDDAKGGSTGKEQPGSYTPKEGTAGERENENESNVKPENQFKEDEVDMSDSDINGSNSPSFCLLDIQGNTCTLYIYLYVNGEVKVDKVVYEKE
[3]
  binding result: binds

B5: N-terminal fragment of Vps5 (residues 1-280) (domain or fragment)
chain: MDYEDNLEAPVWDELNHEGDKTQSLVSNSIESIGQISTNEERKDNELLETTASFADKIDLDSAPEWKDPGLSVAGNPQLEEHDNSKADDLINSLAPEQDPIADLKNSTTQFIATRESGGALFTGNANSPLVFDDTIYDANTSPNTSKSISGRRSGKPRILFDSARAQRNSKRNHSLKAKRTTASDDTIKTPFTDPLKKAEKENEFVEEPLDDRNERRENNEGKFTASVEKNILEQVDRPLYNLPQTGANISSPAEVEENSEKFGKTKIGSKVPPTEKAVA
[2]
  binding result: binds

B6: cytosolic domain of Vps10 (residues 1415-1579), His-tagged (domain or fragment)
chain: YDRGIRRNGGFARFGEIRLGDDGLIENNNTDRVVNNIVKSGFYVFSNIGSLLQHTKTNIAHAISKIRGRFGNRTGPSYSSLIHDQFLDEADDLLAGHDEDANDLSSFMDQGSNFEIEEDDVPTLEEEHTSYTDQPTTTDVPDTLPEGNEENIDRPDSTAPSNENQ
modifications: Cy5 label (Cyc-5 amine derivative) in Figures 3 and 4
[1]
  binding result: binds

B7: Vps26 (natural protein)
chain: MSIFFKPPIDIEILFDNEESRKHVDIATRSSNSSYKSMKESLPVYEDGESLGGIVTLRVRDSKKVDHLGIKVSVIGSIDMLKSHGSGNSSSKKVTSSTSSSSSNGSVDVRKNSVDQFLCQSYDLCPAGELQHSQSFPFLFRDLSKRYESYKGKNVDVAYYVKVTVMRKSTDISKIKRFWVYLYNSVTTAPNTLSANETKATTNDIAGGNYAADNASDNTQTKSTQGEAADVNQVLPISHSNNEPKPVRLDIGIENCLHIEFEYAKSQYSLKEVIVGRIYFLLTRLRIKHMELSLITRESSGLQTSNVMTDSTAIRYEIMDGSSVKGETIPIRLFLSGYDLTPNMSCNYFNVKNYLSLVIIDEDGRRYFKQSEITLYRTR
[3]
  binding result: binds
